Test results from article PMC3868510.
pKd: −log10 of the molar value.

Columns and labels:
[1] = target: soluble truncated αvβ6 integrin conjugated to alkaline phosphatase (UniProt P06756); assay: SPR; Biacore 2000, CM-5 chip; MAb LS-C44264 to placental alkaline phosphatase immobilised by amine coupling and used to capture the soluble integrin-AP; gH/gL injected at 50 µl/min; 25°C; 10 mM HEPES-NaOH pH 7.4, 150 mM NaCl, 0.005% P20; kobs against gH/gL concentration, 1:1 Langmuir
[2] = target: soluble truncated αvβ8 integrin conjugated to alkaline phosphatase (UniProt P06756); assay: as above
Chain of soluble truncated αvβ8 integrin conjugated to alkaline phosphatase (P06756 31-1048, chain 1 of 2): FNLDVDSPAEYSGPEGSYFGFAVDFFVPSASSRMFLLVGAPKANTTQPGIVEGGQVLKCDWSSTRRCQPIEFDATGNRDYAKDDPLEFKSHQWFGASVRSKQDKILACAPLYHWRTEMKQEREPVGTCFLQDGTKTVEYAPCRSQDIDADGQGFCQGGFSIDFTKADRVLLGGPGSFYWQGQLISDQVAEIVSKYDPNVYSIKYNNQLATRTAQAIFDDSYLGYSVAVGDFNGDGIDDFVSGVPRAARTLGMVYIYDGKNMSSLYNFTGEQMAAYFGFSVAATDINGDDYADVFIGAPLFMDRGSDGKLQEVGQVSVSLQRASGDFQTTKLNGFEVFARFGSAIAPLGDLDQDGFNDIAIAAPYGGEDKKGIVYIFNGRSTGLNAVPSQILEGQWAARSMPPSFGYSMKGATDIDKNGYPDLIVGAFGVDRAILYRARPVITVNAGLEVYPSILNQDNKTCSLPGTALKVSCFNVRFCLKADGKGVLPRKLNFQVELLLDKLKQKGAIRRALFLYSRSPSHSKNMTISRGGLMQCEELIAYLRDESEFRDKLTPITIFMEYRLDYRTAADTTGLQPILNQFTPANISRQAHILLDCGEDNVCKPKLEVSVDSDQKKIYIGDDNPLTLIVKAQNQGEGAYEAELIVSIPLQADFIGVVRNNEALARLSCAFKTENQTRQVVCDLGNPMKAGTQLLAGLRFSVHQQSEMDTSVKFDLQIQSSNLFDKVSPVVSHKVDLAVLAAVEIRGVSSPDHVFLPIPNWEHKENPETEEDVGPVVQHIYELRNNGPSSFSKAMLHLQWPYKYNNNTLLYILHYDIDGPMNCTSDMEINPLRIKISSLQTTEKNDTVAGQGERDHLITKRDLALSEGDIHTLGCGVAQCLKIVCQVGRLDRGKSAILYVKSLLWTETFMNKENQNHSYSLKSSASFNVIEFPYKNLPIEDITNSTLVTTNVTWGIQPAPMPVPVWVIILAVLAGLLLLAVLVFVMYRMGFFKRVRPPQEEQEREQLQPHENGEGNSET
Chain of soluble truncated αvβ8 integrin conjugated to alkaline phosphatase (P26012 43-684, chain 2 of 2, further chain): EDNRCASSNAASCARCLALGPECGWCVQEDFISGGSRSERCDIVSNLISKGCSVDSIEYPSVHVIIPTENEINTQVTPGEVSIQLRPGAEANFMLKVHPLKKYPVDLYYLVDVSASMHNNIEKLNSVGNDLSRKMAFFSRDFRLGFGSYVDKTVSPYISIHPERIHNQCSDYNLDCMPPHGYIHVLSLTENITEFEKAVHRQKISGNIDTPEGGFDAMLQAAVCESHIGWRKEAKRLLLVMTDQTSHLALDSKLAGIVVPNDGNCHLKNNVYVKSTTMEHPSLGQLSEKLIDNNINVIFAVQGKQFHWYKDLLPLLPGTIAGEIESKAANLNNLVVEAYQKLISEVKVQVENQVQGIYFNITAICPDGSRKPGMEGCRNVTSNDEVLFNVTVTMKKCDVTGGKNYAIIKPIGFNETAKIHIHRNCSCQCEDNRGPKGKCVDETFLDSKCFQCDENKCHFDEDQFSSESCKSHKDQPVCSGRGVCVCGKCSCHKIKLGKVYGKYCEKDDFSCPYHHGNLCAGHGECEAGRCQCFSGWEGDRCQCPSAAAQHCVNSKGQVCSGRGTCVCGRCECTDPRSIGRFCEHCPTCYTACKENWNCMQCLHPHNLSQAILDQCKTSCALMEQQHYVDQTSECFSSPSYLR

Chain of soluble truncated αvβ6 integrin conjugated to alkaline phosphatase (P06756 31-1048, chain 1 of 2): as the sequence (P06756 31-1048, chain 1 of 2) above
Chain of soluble truncated αvβ6 integrin conjugated to alkaline phosphatase (P18564 22-709, chain 2 of 2, further chain): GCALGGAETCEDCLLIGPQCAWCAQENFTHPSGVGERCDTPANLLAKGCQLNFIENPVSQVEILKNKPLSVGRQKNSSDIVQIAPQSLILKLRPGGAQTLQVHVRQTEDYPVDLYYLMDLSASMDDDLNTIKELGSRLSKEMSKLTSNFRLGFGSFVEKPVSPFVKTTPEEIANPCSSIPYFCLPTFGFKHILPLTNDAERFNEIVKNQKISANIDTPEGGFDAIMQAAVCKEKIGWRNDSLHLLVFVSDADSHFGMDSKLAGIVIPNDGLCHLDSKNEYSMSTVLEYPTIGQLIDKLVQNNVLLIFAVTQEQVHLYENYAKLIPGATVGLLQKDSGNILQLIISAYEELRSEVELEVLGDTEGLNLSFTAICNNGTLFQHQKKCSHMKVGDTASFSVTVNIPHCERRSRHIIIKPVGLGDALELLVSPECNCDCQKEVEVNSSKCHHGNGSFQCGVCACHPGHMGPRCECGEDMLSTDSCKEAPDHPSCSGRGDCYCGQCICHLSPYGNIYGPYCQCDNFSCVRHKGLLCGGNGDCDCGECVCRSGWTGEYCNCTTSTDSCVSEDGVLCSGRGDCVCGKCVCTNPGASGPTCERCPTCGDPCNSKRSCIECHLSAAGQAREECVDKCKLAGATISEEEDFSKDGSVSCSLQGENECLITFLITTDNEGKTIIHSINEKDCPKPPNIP

Work on “soluble form of HSV gH/gL (gHt/gL) (from UniProt P06477 19-838; P10185 20-224) (complex)” yielded a pKd [1] of 7.92, a koff [1] of 0.0018 s⁻¹ and a kon [1] of 152000 M⁻¹ s⁻¹. For the same substance, the pKd [2] was 7.57, the koff [2] was 0.005 s⁻¹ and the kon [2] was 207000 M⁻¹ s⁻¹.
